According to publication PMC9060916:

T1: alpha fetoprotein (AFP) (human, UniProt P02771 19-609)
T1 sequence: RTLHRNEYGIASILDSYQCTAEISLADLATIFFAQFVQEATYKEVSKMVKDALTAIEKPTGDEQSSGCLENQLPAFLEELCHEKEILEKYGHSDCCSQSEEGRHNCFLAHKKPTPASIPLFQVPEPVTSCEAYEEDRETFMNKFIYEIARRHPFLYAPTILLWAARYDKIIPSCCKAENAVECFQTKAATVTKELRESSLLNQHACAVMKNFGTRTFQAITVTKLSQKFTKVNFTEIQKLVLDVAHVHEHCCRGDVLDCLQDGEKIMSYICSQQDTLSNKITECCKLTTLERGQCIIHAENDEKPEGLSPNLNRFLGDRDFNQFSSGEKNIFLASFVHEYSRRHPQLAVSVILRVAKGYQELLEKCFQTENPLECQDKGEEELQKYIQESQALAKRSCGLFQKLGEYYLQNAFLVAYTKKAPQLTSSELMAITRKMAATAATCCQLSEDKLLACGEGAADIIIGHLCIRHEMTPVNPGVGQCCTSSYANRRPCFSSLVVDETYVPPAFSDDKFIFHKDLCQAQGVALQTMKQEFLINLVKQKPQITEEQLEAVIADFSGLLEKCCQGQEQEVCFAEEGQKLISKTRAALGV

T2: C-reactive protein (CRP) (UniProt P02741 19-224)
T2 sequence: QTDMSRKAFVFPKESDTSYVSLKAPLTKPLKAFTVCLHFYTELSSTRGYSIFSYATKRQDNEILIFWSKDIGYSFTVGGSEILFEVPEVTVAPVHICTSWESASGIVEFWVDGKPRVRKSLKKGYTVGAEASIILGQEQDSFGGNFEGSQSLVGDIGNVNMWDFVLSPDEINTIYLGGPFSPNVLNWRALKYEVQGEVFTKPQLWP

B1: HS-P-ATG (ssDNA)
DNA: ATACCAGCTTATTCAATTATG
modifications: 5' HS-(CH2)6
B2: HS-GAC-P (ssDNA)
DNA: GACATACCAGCTTATTCAATT
modifications: 5' HS-(CH2)6

Experiments:
[1] = biological target: T1, alpha fetoprotein (AFP); experiment: electrochemical sandwich aptasensor
[2] = biological target: T2, C-reactive protein (CRP); experiment: electrochemical sandwich aptasensor

| Binder | binding result [1] | binding result [2] |
| --- | --- | --- |
| B1 | no binding | no binding |
| B2 | no binding | no binding |
